Columns and labels:
Test in all cases: cell-based or functional assay
17.4α/8.3β TCR (8.3-TCR) = target: 17.4α/8.3β TCR (8.3-TCR)
[1] = target: 17.6α/8.3β TCR (low affinity IGRP206-214-reactive Vα17.6/8.3β TCR)
[2] = target: Vα17.5+ TCR (CDR3-invariant Vα17.5-Jα42 chain with a single TCRβ chain) on TCRαβ-transfectants

- percentage of cells that had formed CD8 caps, 5 min of incubation with beads (17.4α/8.3β TCR (8.3-TCR)): < 20%
- percentage of cells that had formed CD8 caps, 5 min of incubation with beads [1]: < 20%
- percentage of cells that had formed CD8 caps, 30 min of incubation with beads [1]: < 20%
- percentage of cells that had formed CD8 caps, 5 min of incubation with beads [2]: > 60%
Substance: NRP-V7/K^d-coated nanoparticles (from UniProt P01902 22-305) (peptide-MHC)

— patent publication US20250121043A1
